Data on 13 molecules can be found in US20110179505A1, “RODENT CANCER MODEL FOR HUMAN FGFR4 ARG388 POLYMORPHISM” (priority 2008, published 2011).

“Also recorded” adds a separate entry of the source.

For experiment [1], the system named is FGFR4 Arg/Arg385 MEFs. Nature of the experiment: Apoptosis assay in MEFs (propidium-iodide, FACS) after chemotherapeutic drugs. Type of experiment: cell-based, mouse. The procedure: Transmigration of MEFs were analysed in Boyden Chambers (Schubert & Weiss, Germany). 1.5×10^4 cells were seeded in starving medium containing 0% FCS. Migration was performed to DMEM containing 4% FCS for 16 h. Afterwards cells were stained with crystal violet and migrated cells were analysed macroscopically. To perform an apoptosis assay 1.5×10^4cells in DMEM containing 10% FCS were seeded in 12-well plates. After 24 h cells were treated with 0.5 μM doxorubicin for 48 h. Afterwards cells were stained with propidium-iodide and apoptotic cells were determined in a FACS (FACScalibus, BD) analysis as previously described (27).
To support these observations by molecular analytical methods we determined whether the FGFR4 Arg385 allele is hyperactivated in MEFs and thereby enhances cell transformation. The expression of the different FGFR4 isoforms is equal in MEFs as well as its basic state of phosphorylation (FIG. 9A). Next, we wanted to check if FGFR4 Arg385 facilitates cell survival or influences physiological processes of MEFs. Therefore we analysed the number of population doublings until the cells enter senescence in vitro and additionally stained MEFs, subcultured for 30 days, for […] to visualize senescent cells. However, we found no obvious differences between the different FGFR4 alleles (FIG. 9B). […] Further we wanted to investigate the influence of the FGFR4 Arg385 allele on physiological processes. As a motility enhancing effect of is the FGFR4 Arg388 allele had already been shown by Bange and colleagues with a human mammary carcinoma cell line, we wanted to confirm this observation in MEFs, but as shown in FIG. 9C no difference observed when Gly/Gly—were compared to Arg/Arg-MEFs. Contrarily, Arg-carrying MEFs seemed to strongly support cell survival in response to DNA-damaging agents. […] Additionally, we investigated the anti-apoptotic impact of the FGFR4 Arg385 after treatment with other chemotherapeutic drugs.

Experiment [2] has as its target human FGFR4 Arg388 (pLXSN-FGFR4 Arg388, overexpressed in MDA-MB-231 cells) (human) (UniProt P22455). Nature of the experiment: SILAC LC-MS/MS of FGFR4 immunoprecipitates, MDA-MB-231 cells; FGFR4 Arg388 against the reference FGFR4 Gly388.
For experiment [3] the target is unchanged. Briefly: SILAC LC-MS/MS of FGFR4 immunoprecipitates, MDA-MB-231 cells overexpressing FGFR4 Arg388, normalized to empty pLXSN control cells.
The target in experiment [4] is human FGFR4 Gly388 (pLXSN-FGFR4 Gly388, overexpressed in MDA-MB-231 cells) (human) (UniProt P22455). Nature of the experiment: SILAC LC-MS/MS of FGFR4 immunoprecipitates, MDA-MB-231 cells overexpressing FGFR4 Gly388, normalized to empty pLXSN control cells.
Experiment [5] has as its target T1, mouse wild-type FGFR4 (FGFR4 Gly385) (mouse, UniProt Q03142 17-799).
T1 construct: Endogenous hepatic FGFR4, immunoprecipitated from mouse liver lysates; also called hepatic FGFR4
Nature of the experiment: in vivo SILAC LC-MS/MS of FGFR4 immunoprecipitates from liver, labelled SILAC mouse against FGFR4 KO mouse. The procedure: The hepatic FGFR4 of the unlabelled mouse was immunoprecipitated in the presence of the blocking peptides to detect unspecific binding partners. […] Unspecific interaction partners should display a 1:1 ratio compared to the unlabelled fraction incubated with the blocking peptides. […] For that reason, the investigation of hepatic FGFR4 interaction partners was done with the liver of FGFR4 KO mice (Yu et al., 2000).
Here, significance (PEP<0.03), amount of razor peptides (RPs, >1) and an upregulation of at least 3 fold in FGFR4 KO experiments identified potential FGFR4 interaction partner.

For experiment [6], the target named is T2, mouse FGFR4 Arg385 (knock-in allele) (mouse, UniProt Q03142 17-799).
T2 construct: Endogenous FGFR4 of FGFR4 Arg385 KI mice (liver lysates) and of MEFs derived from them
T2 sequence (Q03142 17-799 G385R/E673G limits assumed): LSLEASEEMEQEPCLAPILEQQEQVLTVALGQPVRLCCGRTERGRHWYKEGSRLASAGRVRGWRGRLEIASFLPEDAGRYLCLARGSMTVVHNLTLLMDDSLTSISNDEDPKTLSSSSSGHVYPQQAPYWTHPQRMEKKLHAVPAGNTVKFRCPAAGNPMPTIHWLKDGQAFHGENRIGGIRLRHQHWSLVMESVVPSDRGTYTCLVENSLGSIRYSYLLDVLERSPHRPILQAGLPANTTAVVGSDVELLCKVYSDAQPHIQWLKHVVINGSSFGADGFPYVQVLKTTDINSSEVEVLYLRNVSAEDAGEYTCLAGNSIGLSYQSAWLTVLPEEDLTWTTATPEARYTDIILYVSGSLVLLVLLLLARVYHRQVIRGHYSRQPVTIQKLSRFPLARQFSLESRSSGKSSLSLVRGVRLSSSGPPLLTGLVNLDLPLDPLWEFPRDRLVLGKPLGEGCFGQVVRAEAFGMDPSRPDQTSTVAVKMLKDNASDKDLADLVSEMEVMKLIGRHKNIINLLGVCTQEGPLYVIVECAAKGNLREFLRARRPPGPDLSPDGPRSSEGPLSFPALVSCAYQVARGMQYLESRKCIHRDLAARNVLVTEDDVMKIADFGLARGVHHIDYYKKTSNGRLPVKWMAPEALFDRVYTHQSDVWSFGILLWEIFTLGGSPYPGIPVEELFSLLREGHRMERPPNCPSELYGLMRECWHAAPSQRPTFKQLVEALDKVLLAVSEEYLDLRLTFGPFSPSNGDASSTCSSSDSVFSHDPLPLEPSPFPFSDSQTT
Briefly: in vivo SILAC LC-MS/MS of FGFR4 immunoprecipitates from liver; FGFR4 Arg385 against the reference FGFR4 Gly385.

Experiment [7] deals with T2, mouse FGFR4 Arg385 (knock-in allele). Nature of the experiment: in vivo SILAC LC-MS/MS of FGFR4 immunoprecipitates from liver, FGFR4 Arg385 mouse with the labelled SILAC mouse as internal standard.
Experiment [8] concerns the target T1, mouse wild-type FGFR4 (FGFR4 Gly385). Briefly: in vivo SILAC LC-MS/MS of FGFR4 immunoprecipitates from liver, FGFR4 Gly385 mouse with the labelled SILAC mouse as internal standard.
The target in experiment [9] is Epidermal Growth Factor Receptor (EGFR, SEQ ID NO: 77) (Homo sapiens (Human)) (UniProt P00533). Briefly: cell-based or functional assay.

Chain of human FGFR4 Arg388 (pLXSN-FGFR4 Arg388, overexpressed in MDA-MB-231 cells) (human) (P22455 22-802 G388R): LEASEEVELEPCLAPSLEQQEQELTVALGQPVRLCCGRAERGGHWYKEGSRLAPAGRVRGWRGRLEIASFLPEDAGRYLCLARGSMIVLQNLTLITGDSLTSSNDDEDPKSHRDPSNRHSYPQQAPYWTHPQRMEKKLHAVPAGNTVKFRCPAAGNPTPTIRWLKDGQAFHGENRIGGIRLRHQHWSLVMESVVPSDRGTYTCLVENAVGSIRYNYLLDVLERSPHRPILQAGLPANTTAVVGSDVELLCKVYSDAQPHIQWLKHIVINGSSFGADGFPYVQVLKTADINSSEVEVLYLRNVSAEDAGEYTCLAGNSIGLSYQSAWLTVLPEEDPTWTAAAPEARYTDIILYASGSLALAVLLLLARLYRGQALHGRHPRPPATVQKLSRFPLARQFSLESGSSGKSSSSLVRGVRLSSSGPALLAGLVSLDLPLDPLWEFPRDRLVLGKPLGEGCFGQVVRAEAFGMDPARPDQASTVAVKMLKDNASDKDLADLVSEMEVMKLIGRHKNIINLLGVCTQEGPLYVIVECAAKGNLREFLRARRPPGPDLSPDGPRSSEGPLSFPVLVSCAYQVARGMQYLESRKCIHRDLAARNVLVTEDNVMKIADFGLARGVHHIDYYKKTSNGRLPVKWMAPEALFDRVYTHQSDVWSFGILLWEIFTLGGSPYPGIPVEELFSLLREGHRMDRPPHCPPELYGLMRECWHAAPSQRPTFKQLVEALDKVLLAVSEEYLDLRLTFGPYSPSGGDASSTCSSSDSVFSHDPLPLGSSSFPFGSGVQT
T1 sequence (Q03142 17-799 E673G limits assumed): as the sequence (Q03142 17-799 G385R/E673G limits assumed) above, with R369G counted along it

Consider `N.N.[Cl][Pt][Cl]` [cisplatin], for which the “apoptotic cells in Arg385 carrying MEFs compared to Gly/Gly385 MEFs” value in [1] (3 μM cisplatin, 48 hrs, p=0.03) was “decreased apoptosis; also recorded: reduced number of apoptotic cells”.
In the case of `COc1cccc2c1C(=O)c1c(O)c3c(c(O)c1C2=O)C[C@@](O)(C(=O)CO)C[C@@H]3O[C@H]1C[C@H](N)[C@H](O)[C@H](C)O1` [doxorubicin], the “apoptotic cells in Arg/Arg385 MEFs compared to Gly/Gly385 MEFs” value in [1] (0.5 μM doxorubicin, 48 h, p=0.03) is “decreased percentage of apoptotic cells; also recorded: reduced number of apoptotic cells”.
Regarding `CC(=O)O[C@H]1C(=O)[C@@]2(C)[C@H]([C@H](OC(=O)c3ccccc3)[C@]3(O)C[C@H](OC(=O)[C@H](O)[C@@H](NC(=O)c4ccccc4)c4ccccc4)C(C)=C1C3(C)C)[C@]1(OC(C)=O)CO[C@@H]1C[C@@H]2O` [taxol], the “apoptotic response in Gly/Gly385 MEFs compared to Arg/Arg385 MEFs” value in experiment [1] (taxol, 48 hrs) was “no differences in apoptotic response”.
As for “Ephrin type-A receptor 2 (from UniProt P29317 24-976)”, the ratio FGFR4Arg388/Gly388 (n = 2) in [2] is 1.05 fold. In experiment [3], the ratio FGFR4Arg388 (n = 2) is 8.74 fold. Besides, the ratio FGFR4Gly388 (n = 2) in [4] came to 7.97 fold.
On to “Epidermal growth factor receptor (mouse liver, Egfr) (from UniProt Q01279 25-1210)”, for which the ratio FGFR4 KO (n = 2) in experiment [5] came out at 5.8 fold. For the same molecule, the ratio FGFR4 Arg385/Gly385 in [6] came out at 3.8. The ratio FGFR4 Arg385 (n = 2) in [7] worked out at 1.3. Besides, the ratio FGFR4 Gly385 (n = 1) in [8] stood at 0.3.
Regarding “Formimidoyltransferase-cyclodeaminase (from UniProt Q91XD4 1-541) (enzyme)”, the ratio FGFR4 KO (n = 2) in experiment [5] amounted to 3.5 fold. Further, in experiment [6], the ratio FGFR4 Arg385/Gly385 was 2.7. For the same molecule, in experiment [7], the ratio FGFR4 Arg385 (n = 2) came out at 1. Also, in [8], the ratio FGFR4 Gly385 (n = 1) was determined as 0.4.
Take “Hydroxyacid oxidase 1 (from UniProt Q9WU19 1-370) (enzyme)”: in experiment [5], the ratio FGFR4 KO (n = 2) was determined as 19.7 fold. The ratio FGFR4 Arg385/Gly385 in experiment [6] was found to be 27.8. Besides, the ratio FGFR4 Arg385 (n = 2) in [7] is 1.6. The ratio FGFR4 Gly385 (n = 1) in [8] turned out to be 0.1.
Consider “Hydroxymethylglutaryl-CoA synthase (from UniProt P54869 38-508) (enzyme)”, for which the ratio FGFR4 KO (n = 2) in experiment [5] stood at 3.3 fold. Also, the ratio FGFR4 Arg385/Gly385 in [6] is 1. Further, the ratio FGFR4 Arg385 (n = 2) in [7] worked out at 1.8. Besides, the ratio FGFR4 Gly385 (n = 1) in experiment [8] is 1.8.
Consider “Propanoyl-CoA C-acyltransferase (from UniProt P32020 1-547) (enzyme)”, for which the ratio FGFR4 KO (n = 2) in experiment [5] turned out to be 7.8 fold. In experiment [6], the ratio FGFR4 Arg385/Gly385 turned out to be 18.6. Besides, in [7], the ratio FGFR4 Arg385 (n = 2) turned out to be 3.6. Moreover, the ratio FGFR4 Gly385 (n = 1) in experiment [8] is 0.2.
Regarding “Protein tyrosine phosphatase, receptor type, F (from UniProt P10586 30-1907)”, the ratio FGFR4Arg388/Gly388 (n = 2) in [2] was 1.06 fold. In addition, the ratio FGFR4Arg388 (n = 2) in experiment [3] amounted to 14.3 fold. Further, the ratio FGFR4Gly388 (n = 2) in experiment [4] amounted to 16.6 fold.
As to “human FGFR4 Arg388 (pLXSN-FGFR4 Arg388, overexpressed in MDA-MB-231 cells) (from UniProt P22455 22-802) (receptor)”, in experiment [9], the IC50 of Gefitinib, MTT-proliferation assay of MDA-MB-231 cells overexpressing the FGFR4 Arg388 allele was 9.53 µM and the inhibition of migration by Gefitinib (2.5 µM), Boyden Chamber Assay, 15 hours, against DMSO treated control cells turned out to be 22.3%.
In experiment [9], “human FGFR4 Gly388 (pLXSN-FGFR4 Gly388, overexpressed in MDA-MB-231 cells) (from UniProt P22455 22-802) (receptor)” gave an IC50 of Gefitinib, MTT-proliferation assay of MDA-MB-231 cells expressing FGFR4 Gly388 (same value for empty pLXSN) of 18.7 µM and an inhibition of migration by Gefitinib (2.5 µM), Boyden Chamber Assay, 15 hours, against DMSO treated control cells of 6.28%.

B1: Beta-klotho (receptor, mouse, UniProt Q99N32 1-1043, looked up)
chain: MKTGCAAGSPGNEWIFFSSDERNTRSRKTMSNRALQRSAVLSAFVLLRAVTGFSGDGKAIWDKKQYVSPVNPSQLFLYDTFPKNFSWGVGTGAFQVEGSWKTDGRGPSIWDRYVYSHLRGVNGTDRSTDSYIFLEKDLLALDFLGVSFYQFSISWPRLFPNGTVAAVNAQGLRYYRALLDSLVLRNIEPIVTLYHWDLPLTLQEEYGGWKNATMIDLFNDYATYCFQTFGDRVKYWITIHNPYLVAWHGFGTGMHAPGEKGNLTAVYTVGHNLIKAHSKVWHNYDKNFRPHQKGWLSITLGSHWIEPNRTDNMEDVINCQHSMSSVLGWFANPIHGDGDYPEFMKTGAMIPEFSEAEKEEVRGTADFFAFSFGPNNFRPSNTVVKMGQNVSLNLRQVLNWIKLEYDDPQILISENGWFTDSYIKTEDTTAIYMMKNFLNQVLQAIKFDEIRVFGYTAWTLLDGFEWQDAYTTRRGLFYVDFNSEQKERKPKSSAHYYKQIIQDNGFPLKESTPDMKGRFPCDFSWGVTESVLKPEFTVSSPQFTDPHLYVWNVTGNRLLYRVEGVRLKTRPSQCTDYVSIKKRVEMLAKMKVTHYQFALDWTSILPTGNLSKVNRQVLRYYRCVVSEGLKLGVFPMVTLYHPTHSHLGLPLPLLSSGGWLNMNTAKAFQDYAELCFRELGDLVKLWITINEPNRLSDMYNRTSNDTYRAAHNLMIAHAQVWHLYDRQYRPVQHGAVSLSLHCDWAEPANPFVDSHWKAAERFLQFEIAWFADPLFKTGDYPSVMKEYIASKNQRGLSSSVLPRFTAKESRLVKGTVDFYALNHFTTRFVIHKQLNTNRSVADRDVQFLQDITRLSSPSRLAVTPWGVRKLLAWIRRNYRDRDIYITANGIDDLALEDDQIRKYYLEKYVQEALKAYLIDKVKIKGYYAFKLTEEKSKPRFGFFTSDFRAKSSVQFYSKLISSSGLPAENRSPACGQPAEDTDCTICSFLVEKKPLIFFGCCFISTLAVLLSITVFHHQKRRKFQKARNLQNIPLKKGHSRVFS
notes: Endogenous protein co-immunoprecipitated with hepatic FGFR4; also called βKlotho
As to B1, in [5], the “ratio FGFR4 KO (n = 2)” value was determined as 28.2 fold. In experiment [6], the “ratio FGFR4 Arg385/Gly385” value came out at 0.7 ratio. Besides, in experiment [7], the “ratio FGFR4 Arg385 (n = 2)” value stood at 2.4 ratio. Moreover, the “ratio FGFR4 Gly385 (n = 1)” value in experiment [8] was 3.2 ratio.
